Measurements: US11752213B2, “Surfaces having reduced non-specific binding and antigenicity” (Duke University, priority 2015, dated 2023)

Test system: IgG Ab to PEG in patient plasma
Assay: Indirect ELISA detection of APAs in patient plasma against Adagen-coated plates
Format: binding, human
Conditions: 5 replicates
Protocol: Informed signed consent was obtained from either the patient or from next of kin. (A) ELISA detection of APAs: Plasma samples diluted 1:21 in 1% BSA in PBS were tested by ELISA for IgG Ab to PEG, but using Adagen® (Sigma Tau Pharmaceuticals, Gaithersburg, Md.) rather than Krystexxa® as the antigen. (B) Surface fluoroimmunoassay against patient APAs: Polymer-coated surfaces were incubated with patient plasma samples diluted 1:3 in PBS for 1 h, and then washed 3 times with wash buffer (0.5% CHAPS in PBS). Next, the surfaces were exposed to a 1 μg/mL solution of Cy5-goat-anti-human IgG detection Ab (R & D Systems, Inc.) for 30 min. Surfaces were then rinsed again to remove any loosely-bound proteins, centrifuged at 4800 rpm for 15 s to wick away excess liquid, then allowed to dry under ambient conditions. Fluorescence imaging and analysis of all samples was performed using an Axon Genepix 4400 tabletop scanner and ImageJ Fiji as described above.
We performed an indirect ELISA on these patient plasma samples to quantify the level of IgG binding to Adagen (PEGylated adenosine deaminase).

B1: ADAGEN: a PEGylated adenosine deaminase for treating severe combined immunodeficiency disease (SCID) (conjugate)
chain: AQTPAFNKPKVELHVHLDGAIKPETILYYGRKRGIALPADTPEELQNIIGMDKPLSLPEFLAKFDYYMPAIAGCREAVKRIAYEFVEMKAKDGVVYVEVRYSPHLLANSKVEPIPWNQAEGDLTPDEVVSLVNQGLQEGERDFGVKVRSILCCMRHQPSWSSEVVELCKKYREQTVVAIDLAGDETIEGSSLFPGHVKAYAEAVKSGVHRTVHAGEVGSANVVKEAVDTLKTERLGHGYHTLEDATLYNRLRQENMHFEVCPWSSYLTGAWKPDTEHPVVRFKNDQVNYSLNTDDPLIFKSTLDTDYQMTKNEMGFTEEEFKRLNINAAKSSFLPEDEKKELLDLLYKAYGMPSPA
- OD 405 nm Avg (Pt# 1, APA neg, sample 929-237-01): 0.149
- OD 405 nm Avg (Pt# 2, APA pos, sample 929-219-07): 0.714
- OD 405 nm Avg (Pt# 3, APA pos, sample 929-237-12): 1.243
- OD 405 nm Avg (Pt# 4, APA pos, sample 929-241-07): 1.679
- OD 405 nm Avg (Pt# 5, APA pos, sample 929-218-21): 3.059
